Measured values: US20260226147A1 (ATRECA, published 2026)

T1: NANP6 peptide (NANPNANPNANPNANPNANPNANP) (Plasmodium falciparum, N-terminal biotin-aminohexanoic acid tag; unmodified C-terminus)
T1 construct: Synthetic peptide (CPC scientific); also called (NANPx6) peptide; long, major repeat peptide
T1 peptide: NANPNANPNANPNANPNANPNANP

T2: NVDP3NANP2 peptide (NVDPNANPNVDPNANPNVDP) (Plasmodium falciparum, acetylated at N-terminus; amidated at C-terminus)
T2 construct: Synthetic peptide; also called long, minor repeat peptide
T2 peptide: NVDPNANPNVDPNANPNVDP


Legend:
[1] = target: T1, NANP6 peptide (NANPNANPNANPNANPNANPNANP); assay: SPR (Carterra LSA, 25 C), antibody immobilised on the chip, peptide as analyte
[2] = target: T2, NVDP3NANP2 peptide …; assay: as above
[3] = target: T3, recombinant CSP (Plasmodium falciparum circumsporozoite protein, 3D7) (Plasmodium falciparum, UniProt Q7K740 19-374); assay: SPR (Carterra LSA), IgG captured, CSP analyte
T3 construct: also called CSP (3D7)
T3 sequence (Q7K740 19-374 limits assumed): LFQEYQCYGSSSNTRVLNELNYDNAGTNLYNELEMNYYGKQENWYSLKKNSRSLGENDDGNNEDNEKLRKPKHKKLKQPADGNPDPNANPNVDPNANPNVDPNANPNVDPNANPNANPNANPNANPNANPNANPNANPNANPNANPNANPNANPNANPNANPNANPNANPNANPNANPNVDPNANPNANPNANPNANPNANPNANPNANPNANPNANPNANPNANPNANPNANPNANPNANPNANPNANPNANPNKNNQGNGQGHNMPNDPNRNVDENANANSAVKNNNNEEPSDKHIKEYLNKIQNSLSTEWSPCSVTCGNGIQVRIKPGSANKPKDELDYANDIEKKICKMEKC

Row | Binder | binding result [1] | binding result [2] | Kd [3]
1 | AB-007163 (antibody, V domains shown) VH: QVHLLESGGTVVQPGGSLRLSCEASGFIFSDYGMHWVRQVPGKGLEWVAVIWFDGSQKYYGDSVKGRFTVSRDNSKNTLYLQMNTLRADDTGIYYCATDIRGAYKVTDGGFDQWGHGTLVTVSP VL: QSVLTQPPSISGAPGQRVTISCTGAGSNIGAGYEVHWYQQLPGTAPKLLMFADNNRPSGVPDRFSGSKSGTSASLAITGLQAEDEADYYCQSYDISLKNFVFGTGTTVTVL | binds | binds | –
2 | AB-001558 (antibody, V domains shown) VH: QVQLVESGGGVVQPGRSLRLSCAASGFTFSSYGMHWVRQAPGKGLEWVAVIWYDGNNKYYVDSVKGRFTISRDNSKNTLYLQMNSLRAEDTAVYYCARDHDADYVEKWGAFDLWGQGTMVTVSS VL: EIVMTQSPATLSVSPGERATLSCRASQSVSSNLAWYQQKPGQAPRLLIYGASARATGIPARFSGSGSGTEFTLTISSLQSEDFAVYYCQQYNNGRTFGQGTKVEIT | – | – | 1.05 nM
